According to US20200370050:

Biological target: FLAG-CRAF (1-648)

B1: human placental GSTP1 (Sigma-Aldrich) (protein)
chain: PPYTVVYFPVRGRCAALRMLLADQGQSWKEEVVTVETWQEGSLKASCLYGQLPKFQDGDLTLYQSNTILRHLGRTLGLYGKDQQEAALVDMVNDGVEDLRCKYISLIYTNYEAGKDDYVKALPGQLKPFETLLSQNQGGKTFIVGDQISFADYNLLDLLLIHEVLAPGCLDAFPLLSAYVGRLSARPKLKAFLASPEYVNLPINGNGKQ
  phosphorylation of MEK1 by FLAG-CRAF (in vitro kinase assay, Western blot for p-MEK1/2): GSTP1 was found to enhance the phosphorylation of MEK1 by FLAG-CRAF (compare lanes 3 and 5 in FIG. 3)
